± gives the standard deviation of the averaged measurements.

Experimental findings from the supplement of paper PMC10126150 are described below.

The test system of this series is ATP. Put plainly: switch fluorescence ratio, 500 uM ATP over buffer (Cy3 cluster intensity, sum of 5 cycles each) (fold (ratio)); higher = stronger signal-on switching upon ATP binding; sequences stand for … in TCGTCGGCAGCGTCAGATGTGTATAAGAGACAGTTTTTTTTTTTTTTTTTTTTTTTTT…TC. To be noted: aptamer strand: ATP DNA aptamer (quencher-CACCTGGGGGAGTATTGCGGAGGAAGG + anchor), 100 nM annealed; ATP concentration: 500 uM. An outline of the steps: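 The fluorescence ratio divides summed target-cycle Cy3 intensity by summed buffer-cycle Cy3 intensity for each cluster and is averaged per switch-domain sequence. Cy3-labelled switching-strand clusters on a modified Illumina MiSeq flow-cell were annealed to 100 nM quencher-labelled ATP aptamer, then imaged in selection buffer and again after 15 min with 500 uM ATP at 22 °C. Five such cycles were run, with NaOH stripping and re-annealing between them, and clusters outside 100-1000 RFU were excluded.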
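Also: ATP exposure 15 min at 22 °C before imaging.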

Take TTTCATGATG: the switch fluorescence ratio came out at 0.998 ± 0.02.

Consider TTTCATGGCG, for which the switch fluorescence ratio amounted to 0.97893 ± 0.0002. Regarding TTTCATTAAA, the switch fluorescence ratio worked out at 0.994 ± 0.033. For TTTCATTACT, the switch fluorescence ratio came to 1.04 ± 0.065. Consider TTTCATTTAT, for which the switch fluorescence ratio was determined as 0.986 ± 0.021. In the case of TTTCATTTCT, the switch fluorescence ratio came out at 1 ± 0.018. With TTTCCAAAAT, the switch fluorescence ratio was determined as 0.991 ± 0.026.

With TTTCCAGACT, the switch fluorescence ratio turned out to be 0.968 ± 0.019. With TTTCCATAAG, the switch fluorescence ratio came to 1.007 ± 0.0022. The same measure for TTTCCATTAT: 1.01 ± 0.058.

As for TTTCCATTTT, the switch fluorescence ratio worked out at 1.02 ± 0.074. TTTCCCGAGG: the switch fluorescence ratio is 1.51 ± 0.55. Consider TTTCCGGTGC, for which the switch fluorescence ratio worked out at 1.7 ± 0.13. To TTTCCTCTCG belongs 1.54 ± 0.76. The same measure for TTTCCTTTTT: 1.15 ± 0.36; for TTTCGAATTC: 1.006 ± 0.0084; for TTTCGACAAG: 1.07 ± 0.1. Regarding TTTCGAGCGT, the switch fluorescence ratio is 1.01 ± 0.029. In the case of TTTCGCGGTC, the switch fluorescence ratio amounted to 1.9 ± 1.1. The same measure for TTTCGGAGCC: 1.16 ± 0.24; for TTTCGGCGGT: 1.02 ± 0.021. Turning to TTTCGGGGAA, the switch fluorescence ratio is 1.06 ± 0.1. Take TTTCGGGGGG: the switch fluorescence ratio was 1.02 ± 0.037. As for TTTCGGTCAC, the switch fluorescence ratio came out at 0.983 ± 0.0036. For TTTCGGTCGT, the switch fluorescence ratio is 1.03 ± 0.074. The same measure for TTTCGGTTAT: 1.02 ± 0.021; for TTTCGGTTTG: 1.02 ± 0.047; for TTTCGTACTC: 1.09 ± 0.13. Turning to TTTCGTATGT, the switch fluorescence ratio is 0.997 ± 0.05. To TTTCGTCATC belongs 1.66 ± 0.91; to TTTCGTTTCT, 1.03 ± 0.024.

On to TTTCTAGTTT, for which the switch fluorescence ratio amounted to 0.984 ± 0.026. Regarding TTTCTATGGT, the switch fluorescence ratio worked out at 1.003 ± 0.0073.

On to TTTCTCAGTT, for which the switch fluorescence ratio turned out to be 0.977 ± 0.02. TTTCTCGTTT: the switch fluorescence ratio turned out to be 1.006 ± 0.0072. To TTTCTGCAGT belongs 1.27 ± 0.38; to TTTCTTATTC, 0.983 ± 0.022. On to TTTCTTATTT, for which the switch fluorescence ratio was 1 ± 0.013. The same measure for TTTCTTCCCT: 1.13 ± 0.11; for TTTCTTCTTT: 1.02 ± 0.044. Turning to TTTCTTGCGG, the switch fluorescence ratio amounted to 1.012 ± 0.0019. Turning to TTTCTTGTCT, the switch fluorescence ratio is 1.01 ± 0.035. TTTCTTTCTT: the switch fluorescence ratio came to 1.05 ± 0.083.

Take TTTCTTTGGG: the switch fluorescence ratio came out at 0.998 ± 0.043. Consider TTTCTTTGGT, for which the switch fluorescence ratio was 1.016 ± 0.0075.

Regarding TTTGAAACCA, the switch fluorescence ratio amounted to 1.01 ± 0.024. For the sequence TTTGAAATAT, the switch fluorescence ratio came out at 1.01 ± 0.013. In the case of TTTGAAGCAA, the switch fluorescence ratio came to 4.2 ± 3.2. The same measure for TTTGAAGCCG: 0.989 ± 0.024; for TTTGAAGCTA: 2.19 ± 1.9; for TTTGAATATT: 0.991 ± 0.036. Turning to TTTGACAGGG, the switch fluorescence ratio stood at 1.02 ± 0.014. In the case of TTTGACAGTA, the switch fluorescence ratio was determined as 1.07 ± 0.061.

Turning to TTTGACCGGA, the switch fluorescence ratio came out at 1.02 ± 0.072.

Turning to TTTGACGATT, the switch fluorescence ratio came out at 1 ± 0.049. Turning to TTTGACGCGT, the switch fluorescence ratio was determined as 1.02 ± 0.016. Turning to TTTGACGGGT, the switch fluorescence ratio amounted to 1.02 ± 0.029. Regarding TTTGACGTGC, the switch fluorescence ratio was 1.02 ± 0.033. TTTGACTAAG: the switch fluorescence ratio was 1.06 ± 0.099.

As for TTTGAGAATT, the switch fluorescence ratio was 1.01 ± 0.032.

TTTGAGAGGT: the switch fluorescence ratio came out at 1.05 ± 0.03.

Consider TTTGAGATAG, for which the switch fluorescence ratio stood at 1.02 ± 0.012.

For the sequence TTTGAGATGT, the switch fluorescence ratio is 1.04 ± 0.0048. In the case of TTTGAGCCAC, the switch fluorescence ratio was determined as 1.05 ± 0.0095. Regarding TTTGAGGACA, the switch fluorescence ratio was 1.01 ± 0.012. As to TTTGAGGAGC, the switch fluorescence ratio was found to be 1.035 ± 0.0028. With TTTGAGGGCG, the switch fluorescence ratio stood at 1.01 ± 0.066. For TTTGAGGGCT, the switch fluorescence ratio came out at 1.006 ± 0.0023. To TTTGAGGTAG belongs 0.98 ± 0.019; to TTTGAGGTGG, 1.03 ± 0.043; to TTTGAGTCAT, 0.9713 ± 0.0092.

For TTTGAGTTTG, the switch fluorescence ratio was 1.009 ± 0.0056. The same measure for TTTGATAATT: 1.07 ± 0.15. Turning to TTTGATACAG, the switch fluorescence ratio is 1.012 ± 0.0071. The same measure for TTTGATATTG: 0.994 ± 0.038.

Consider TTTGATCGCT, for which the switch fluorescence ratio stood at 1.28 ± 0.46. Consider TTTGATTAAT, for which the switch fluorescence ratio is 0.987 ± 0.011. Regarding TTTGATTCGG, the switch fluorescence ratio was 0.983 ± 0.017. On to TTTGATTGGA, for which the switch fluorescence ratio was found to be 1.02 ± 0.011.
